Measurements from article PMC10916747, “Safety, biodistribution and radiation dosimetry of the Arg-Gly-Asp peptide ^99mTc-maraciclatide in healthy volunteers” (Nuclear Medicine Communications, 2024).
Numbered stars: 1 amine (or outer) side, 2 acyl side, 3 side chain; on linkers, the order of the positions; unused ones are H or OH. Bridge positions count the residues as written; N and C are the ends. Side chains are listed from the residue outwards. Peptide text beside a SMILES is read from it. * marks the point of attachment. X1 = C/C(=N\O)C(C)(C)NCCC(CCNC(C)(C)/C(C)=N/O)CCN*; Glutaryl = O=C(CCCC(=O)[*:2])[*:1]; X2 = NC(=O)COCC(=O)NCCOCCOCCOCCN*

Columns and labels:
integrin receptor αvβ3 = details: background statement, no reference printed; listed as 99mTc-Maraciclatide; cited from earlier work
healthy volunteers [1] = test: clinical; design: species or system human; details: in vivo
Procedure: (§1) On the day of administration before the administration of ^99mTc-maraciclatide, a transmission scan was obtained. The counts acquired from a flood or line source with and without the participant on the imaging couch were utilised to calculate body attenuation. Following intravenous administration of ^99mTc-maraciclatide, whole-body gamma scintigraphy was performed at 5 min post-administration up to 24 h as described below (section 2.6). Additional anterior and posterior planar images of the chest (45 min and 1 h 45 min, post-administration) and the pelvis (1 h 15 min and 2 h post-administration) were obtained for each participant.
(§2) Regions of interest (ROIs) were selected from organs and tissues on the whole-body scintigraphic images showing significant activity uptake. ^99mTc activity in ROIs was calculated using the methodology described in Medical Internal Radiation Dose (MIRD) Pamphlet No. 16 [15].
(§3) To calculate ^99mTc-maraciclatide ex-vivo activity, blood, plasma, urine, and faeces were collected at various time points after administration. Blood and plasma samples were collected at 10 min, 30 min, 1 h, 2 h, 4 h, 8 h, 24 h, 48 h, 72 h, and 7 days post-administration. Concentrations of maraciclatide in plasma were assayed using the LC-MS method (LOQ was 0.5 ng/ml). Urine was also collected at the same time points (if possible) up to 24 h post-administration. Faecal samples were collected as voided for up to 24 h post-administration. Assayed samples for ^99mTc-maraciclatide content were then measured using a gamma counter.
(§4) The biodistribution of ^99mTc was determined by whole-body conjugate view imaging in conjunction with extracorporeal activity measurements in whole blood, plasma, voided urine, and faeces, as described above. Simultaneous anterior and posterior whole-body images were acquired beginning nominally at 5 min, 15 min, 30 min, 60 min, 90 min, 3 h, 6 h and 12 h post-administration. A final anterior and posterior image pair was acquired at a ninth time-point between 21 and 24 h post-administration. Quantitative analysis of the incorporated data at multiple time points yielded biodistribution data consisting of activity in 10 specified organs or tissues [brain, salivary glands, thyroid gland, lungs, heart, spleen, liver, gallbladder, gastrointestinal (GI) tract and urinary bladder]. The remaining ^99mTc activity in other tissues was grouped within a ‘remaining tissues’ category. For each organ or tissue of interest, the ^99mTc activity was decay-corrected to the administration time and normalised to the injected activity. The temporal variation of this normalised and decay-corrected activity was then fit by one of several analytical functions, which was then integrated to yield the cumulated activity for that organ normalised to the injected activity.

clinical = test: clinical; design: species or system human; details: human, in vivo, iv, total radioactivity
Procedure: as §1, §2, §3, §4

healthy volunteers [2] = test: Phase 1 safety assessment (adverse events, vital signs, ECG, laboratory parameters)
Procedure: In 2003, a phase 1, placebo-controlled, observer-blinded, randomised, single ascending-dose study was performed. The study aimed to assess the safety of three intravenous levels of maraciclatide and the biodistribution and radiation dosimetry of ^99mTc-maraciclatide in healthy volunteers, assessing the potential of ^99mTc-maraciclatide as a radiopharmaceutical for diagnostic imaging.
Safety data on vital signs (heart rate, blood pressure, temperature, and oxygen saturation), electrocardiograms (ECG), laboratory parameters and physical examinations (general appearance, lung, abdominal, cardiovascular, and neurological exam by a qualified clinician) were measured prior to administration, and at multiple time points up to 7 days following administration. Based on clinical assessment, new abnormal or worsening clinical findings were defined as a change from the participant’s normal baseline to abnormal. All abnormal changes were recorded as adverse events (AEs).
Safety assessments were performed by an observer blinded to the administration of the placebo and ^99mTc-maraciclatide. A thorough review of safety data was performed before the decision was made to escalate to the higher dose in participants.

αvβ5 integrins = details: background statement, no reference printed; cited from earlier work
Excerpt: As such, it holds promise as a novel diagnostic imaging agent for a range of pathological conditions. […] Methods A phase 1, randomised, placebo-controlled study assessed the safety, biodistribution and radiation dosimetry of ^99mTc-maraciclatide in healt ...

healthy volunteers [3] = tested on: healthy volunteers; design: species or system human; details: in vivo
Procedure: The mean absorbed doses per unit injected activity to 24 target organs were evaluated from this matrix of normalised cumulated activity values, using the MIRD schema, for a 70-kg adult human. The cumulated activity in the urinary bladder contents and voided urine was calculated using a dynamic urinary bladder model for a 3.5-h voiding interval. Cumulative activities in the GI tract were calculated using a dynamic model that assumed that activity enters the GI tract solely through hepatobiliary drainage. […] At later times, it was possible to identify the ^99mTc associated with the GI tract as predominantly that in the luminal contents. The overall time course of ^99mTc activity in a ROI set over the GI tract was typically that of an initial rapid decrease which then slowed to approach the amount present in the luminal contents. This observation was considered to be due to an initial rapid uptake and subsequent tissue clearance of ^99mTc from the GI tract walls combined with the slow introduction of ^99mTc into the GI contents via hepatobiliary transport. The activity in the luminal contents was isolated by first modelling the GI tract wall tissue clearance by the renormalised time course of activity measured in a ROI set over a region of soft tissue (the quadriceps femoris in one leg). […] The ED per unit injected activity was subsequently calculated from the ensemble of organ-absorbed dose values.
The effective dose (ED) was calculated from the ensemble of organ-absorbed dose values at 7.8 ± 0.8 μSv/MBq.

healthy volunteers [4] = test: clinical; design: species or system human; details: in vivo; remark: listed apart in the source
Procedure: as §3
Concentrations of maraciclatide in plasma were assayed using the LC-MS method (LOQ was 0.5 ng/ml). The mean apparent terminal elimination half-life was approximately 1 h. Overall, systemic clearance was approximately 6.7 ml/min/kg, whilst the mean apparent volume of distribution was approximately 520 ml/kg. The majority of ^99mTc activity was excreted through the urinary pathway and GI tract, 55% and 16%, respectively.

## C/C(=N\O)C(C)(C)NCCC(CCNC(=O)CCCC(=O)NCCCC[C@@H]1NC(=O)CSC[C@@H](C(=O)NCCOCCOCCOCCNC(=O)COCC(N)=O)NC(=O)[C@H](Cc2ccccc2)NC(=O)[C@@H]2CSSC[C@H](NC1=O)C(=O)N[C@@H](CCCNC(=N)N)C(=O)NCC(=O)N[C@@H](CC(=O)O)C(=O)N2)CCNC(C)(C)/C(C)=N/O (some centres unmarked) [^99mTc-maraciclatide, metal not drawn] ({CH2CO}-K([Glutaryl-X1])CRGDCFC-X2; disulfide 2-6; thioether N-8; N-terminus and C-terminus assumed)
Integrin receptor αvβ3
  affinity to αvβ3: high affinity
Healthy volunteers [1]
  normalised cumulated activity, combined walls of the small intestine and upper and lower large intestine: 0.9 ± 0.2 MBq*h/MBq
  normalised cumulated activity, contents of the upper large intestine: 0.3 ± 0.1 MBq*h/MBq
  normalised cumulated activity, liver: 0.8 ± 0.2 MBq*h/MBq
  normalised cumulated activity, lung: 0.4 ± 0.1 MBq*h/MBq
  uptake in the red bone marrow: too low to be quantified
clinical; 99mTc activity excreted through the GI tract
  dose excreted: 16%
clinical; 99mTc activity excreted through the urinary pathway
  dose excreted: 55%
Healthy volunteers [2]; 24 participants receiving protocol-stipulated dose
  number of non-serious AEs: 31
Healthy volunteers [2]; all dose groups, single i.v.
  deaths: no deaths
Healthy volunteers [2]; in vivo
  intensity of related AEs: mild intensity
  laboratory, ECG and vital signs parameters: no clinically important safety trends
  participants experiencing non-serious AEs (number): 17
  participants experiencing non-serious AEs (percent): 71%
  participants with AEs attributed to the agent: 6
  participants with AEs that required medical treatment (number): 3
  participants with AEs that required medical treatment (percent): 13%
  participants with reduction in red blood cell count (number): 4
  participants with reduction in red blood cell count (percent): 17%
  time to resolution of related AEs: ≤ 25 h
αvβ5 integrins
  affinity to αvβ5: high affinity
Healthy volunteers [3]
  mean effective dose (ED) per unit injected activity: 7.8 μSv/MBq
Healthy volunteers [3]; iv
  Absorbed dose per unit administered activity, Adrenal glands: 4.7 μGy/MBq
  Absorbed dose per unit administered activity, Bone surfaces: 4.5 μGy/MBq
  Absorbed dose per unit administered activity, Brain: 1.3 μGy/MBq
  Absorbed dose per unit administered activity, Breasts: 1.8 μGy/MBq
  Absorbed dose per unit administered activity, Gallbladder wall: 8.7 μGy/MBq
  Absorbed dose per unit administered activity, Heart wall: 6.1 μGy/MBq
  Absorbed dose per unit administered activity, Kidneys: 16.5 μGy/MBq
  Absorbed dose per unit administered activity, Liver: 11.1 μGy/MBq
  Absorbed dose per unit administered activity, Lower large intestine wall: 11.7 μGy/MBq
  Absorbed dose per unit administered activity, Lungs: 7.3 μGy/MBq
  Absorbed dose per unit administered activity, Muscle: 2.8 μGy/MBq
  Absorbed dose per unit administered activity, Ovaries: 6.3 μGy/MBq
  Absorbed dose per unit administered activity, Pancreas: 5.0 μGy/MBq
  Absorbed dose per unit administered activity, Red marrow: 3.0 μGy/MBq
  Absorbed dose per unit administered activity, Skin: 1.5 μGy/MBq
  Absorbed dose per unit administered activity, Small intestine wall: 8.9 μGy/MBq
  Absorbed dose per unit administered activity, Spleen: 16.1 μGy/MBq
  Absorbed dose per unit administered activity, Stomach: 3.8 μGy/MBq
  Absorbed dose per unit administered activity, Testes: 2.8 μGy/MBq
  Absorbed dose per unit administered activity, Thymus gland: 2.5 μGy/MBq
  Absorbed dose per unit administered activity, Thyroid gland: 4.9 μGy/MBq
  Absorbed dose per unit administered activity, Upper large intestine wall: 14.7 μGy/MBq
  Absorbed dose per unit administered activity, Urinary bladder wall: 36.2 μGy/MBq
  Absorbed dose per unit administered activity, Uterus: 7.5 μGy/MBq
Healthy volunteers [4]
  systemic urinary clearance: approximately 6.7 ml/min/kg
